The results in this text go back to patent US7588893.

Assay [1] has as its target poly-CT oligonucleotide tagged rabbit IgG. The assay is described as follows: fluorescent microspheres on the poly-GA microspot carrying Poly-CT-Rabbit IgG, confocal laser scanning, ex 568 / em 585.
In assay [2] the target is poly-GT oligonucleotide tagged anti-TSH mouse monoclonal IgG. The experiment in a line: fluorescent microspheres on the poly-CA microspot carrying Poly-GT-Mouse IgG, confocal laser scanning, ex 568 / em 585; control 22.0 ± 0.2.
The target is the same in assay [3]. The assay is described as follows: fluorescent microspheres on the poly-CA microspot carrying Poly-GT-Mouse IgG, confocal laser scanning, ex 488 / em 525.
Assay [4] concerns the target poly-CT oligonucleotide tagged rabbit IgG. The assay is described as follows: fluorescent microspheres on the poly-GA microspot carrying Poly-CT-Rabbit IgG, confocal laser scanning, ex 488 / em 525; control 13.3 ± 0.5.

Regarding “goat anti-rabbit IgG (whole molecule) antibody conjugated red FLUOSPHERES”, the Red Signal in assay [1] came out at 99.8; in assay [2], 24.
On to “goat anti-mouse IgG (whole molecule) antibody conjugated yellow-green FLUOSPHERES”, for which the results for the Yellow/Green Signal in assay [3] and in assay [4] were 101 and 16.9, respectively.
